Test results published in patent publication EP3176583A2 (TLA Targeted Immunotherapies AB, dated 2017).
Bridge positions count the residues as written; N and C are the ends. Square brackets hold non-standard residues; d marks the D form. Side chains are listed from the residue outwards. * marks the point of attachment. Biotin = O=C1N[C@H]2[C@H](CS[C@H]2CCCCC(=O)*)N1; pGlu = O=C1CC[C@@H](C(=O)O)N1; Nle = CCCC[C@H](N)C(=O)O; AEEA = NCCOCCOCC(=O)O

Experiments:
hCCR7 (human) = hCCR7 (human) (UniProt P32248); test: cell-based or functional assay
hCCR9 = target: T1, hCCR9 (human, UniProt P51686 1-369); test: cell-based or functional assay
T1 sequence (looked up): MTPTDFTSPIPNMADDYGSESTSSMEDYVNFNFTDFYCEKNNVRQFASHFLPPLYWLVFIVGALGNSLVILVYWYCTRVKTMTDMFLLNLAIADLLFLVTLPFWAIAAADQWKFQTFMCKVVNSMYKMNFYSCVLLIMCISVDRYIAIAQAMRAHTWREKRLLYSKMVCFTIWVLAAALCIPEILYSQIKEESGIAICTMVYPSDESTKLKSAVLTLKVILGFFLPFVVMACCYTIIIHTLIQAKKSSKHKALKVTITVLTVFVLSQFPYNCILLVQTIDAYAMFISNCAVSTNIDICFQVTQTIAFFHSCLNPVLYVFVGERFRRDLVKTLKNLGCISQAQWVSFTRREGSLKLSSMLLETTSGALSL

Chain of hCCR7 (human) (P32248 25-378 limits assumed): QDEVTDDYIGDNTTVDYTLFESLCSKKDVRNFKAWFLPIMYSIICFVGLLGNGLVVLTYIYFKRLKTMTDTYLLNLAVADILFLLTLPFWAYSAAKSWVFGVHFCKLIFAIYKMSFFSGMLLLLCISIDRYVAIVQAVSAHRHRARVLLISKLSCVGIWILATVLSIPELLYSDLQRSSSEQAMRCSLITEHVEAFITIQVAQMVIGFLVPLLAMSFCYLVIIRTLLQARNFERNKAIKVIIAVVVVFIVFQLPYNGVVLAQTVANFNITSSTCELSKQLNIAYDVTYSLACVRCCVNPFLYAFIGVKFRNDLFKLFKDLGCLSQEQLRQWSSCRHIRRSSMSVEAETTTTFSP

## biotinMIP-3β (human MIP-3β/CCL19 residues 1-77 with an additional Lys78 derivatised with Biotin) (from UniProt Q99731 22-98) (ligand)
hCCR7 (human)
  EC50, agonist activity in an Aequorin assay: 11 nM

## native TECK (from UniProt O15444 24-150) (ligand)
hCCR9
  EC50, agonist activity in an Aequorin assay: 67.9 nM

## recombinant native MIP-3β (from UniProt Q99731 22-98) (ligand)
hCCR7 (human)
  EC50, agonist activity in an Aequorin assay: 1.6 nM

B1: TECK-Biotin-Nle (truncated human TECK/CCL25, residues 1-74 of the mature protein, Met to Nleu substitution, derivatised at Lys72 with PEG-Biotin) (ligand)
chain: [pGlu]GVFEDCCLAYHYPIGWAVLRRAWTYRIQEVSGSCNLPAAIFYLPKRHRKVCGNPKSREVQRA[Nle]KLLDARNK([AEEA-Biotin])VF
modifications: disulfide 7-35, 8-52; also: TFA salt
hCCR9
  EC50, agonist activity in an Aequorin assay: 63.6 nM
